Test results taken from patent US20180258153A1 (Novo Nordisk, published 2018).
Starred links: 1 amine or outer side, 2 acyl side, 3 side chain; linkers in the order of their positions; H or OH if unused. Non-standard residues stand in square brackets, D forms with d. Groups on a side chain read outwards from the residue. No end group written: not given here. *: point of attachment. C20 diacid = O=C(O)CCCCCCCCCCCCCCCCCCC(=O)*; γGlu = O=C(O)[C@H](CCC(=O)[*:2])N[*:1]; Desaminohistidyl = O=C(CCc1c[nH]cn1)*; Trx = NC[C@H]1CC[C@H](C(=O)O)CC1; AEEA = NCCOCCOCC(=O)O; Aib = CC(C)(N)C(=O)O

B1: GLP-1 derivative of Example 7 (peptide)
peptide: [Desaminohistidyl][Aib]EGTFTSDVSSYLEEQAAREFIAWLVRGRGGK([AEEA-AEEA-Lys-AEEA-AEEA-γGlu-Trx-C20 diacid),(Ado-AEEA-γGlu-Trx-C20 diacid])
modifications: also: branched side chain on Lys39: two identical arms on eps-Lys(Bis)
notes: also called Chem. 27; [Imp7,Aib8,Glu22,Arg26,Arg34]-GLP-1-(7-37)-peptidyl-Gly-N{Epsilon}-acylated Lys
B2: GLP-1 derivative of Example 5 (peptide)
peptide: HXEGTFTSDVSSYLEEQAAREFIAWLVRGRK
modifications: not fully specified; Aib at position 8 (GLP-1 numbering); epsilon-amino of Lys37 acylated with branched side chain: Pre-linker dPEG20; Branched linker eps-Lys(Bis); two Post-linkers Trx-gGlu, each carrying a C20 diacid Protractor
notes: also called Chem. 25; N{Epsilon-37}-acylated [Aib8,Glu22,Arg26,Arg34,Lys37]-GLP-1-(7-37)-peptide
B3: GLP-1 derivative of Example 8 (peptide)
peptide: B2 peptide
modifications: Aib at position 8 (GLP-1 numbering); epsilon-amino of Lys37 acylated with branched side chain: Pre-linker 4xAdo; Branched linker eps-Lys(Bis); two Post-linkers Trx-gGlu, each carrying a C20 diacid Protractor
notes: also called Chem. 28; N{Epsilon-37}-acylated [Aib8,Glu22,Arg26,Arg34,Lys37]-GLP-1-(7-37)-peptide
B4: GLP-1 derivative of Example 21 (peptide)
peptide: B2 peptide
modifications: not fully specified; Aib at position 8 (GLP-1 numbering); epsilon-amino of Lys37 acylated with branched side chain: Pre-linker 4xAdo; Branched linker eps-Lys(Bis); two Post-linkers Trx-gGlu-Ado, each carrying a C20 diacid Protractor
notes: also called Chem. 41; N{Epsilon-37}-acylated [Aib8,Glu22,Arg26,Arg34,Lys37]-GLP-1-(7-37)-peptide
B5: GLP-1 derivative of Example 10 (peptide)
peptide: B2 peptide
modifications: not fully specified; Aib at position 8 (GLP-1 numbering); epsilon-amino of Lys37 acylated with branched side chain: Pre-linker 4xeps-Lys; Branched linker eps-Lys(Bis); two Post-linkers Trx-gGlu, each carrying a C20 diacid Protractor
notes: also called Chem. 30; N{Epsilon-37}-acylated [Aib8,Glu22,Arg26,Arg34,Lys37]-GLP-1-(7-37)-peptide
B6: GLP-1 derivative of Example 11 (peptide)
peptide: B2 peptide
modifications: Aib at position 8 (GLP-1 numbering); epsilon-amino of Lys37 acylated with branched side chain: Pre-linker 2xAdo; Branched linker eps-Lys(Bis); two Post-linkers Trx-gGlu, each carrying a C20 diacid Protractor
notes: also called Chem. 31; N{Epsilon-37}-acylated [Aib8,Glu22,Arg26,Arg34,Lys37]-GLP-1-(7-37)-peptide
B7: GLP-1 derivative of Example 9 (peptide)
peptide: B2 peptide
modifications: not fully specified; Aib at position 8 (GLP-1 numbering); epsilon-amino of Lys37 acylated with branched side chain: Pre-linker 2xeps-Lys; Branched linker eps-Lys(Bis); two Post-linkers Trx-gGlu, each carrying a C20 diacid Protractor
notes: also called Chem. 29; N{Epsilon-37}-acylated [Aib8,Glu22,Arg26,Arg34,Lys37]-GLP-1-(7-37)-peptide
B8: GLP-1 derivative of Example 15 (peptide)
peptide: B2 peptide
modifications: not fully specified; Aib at position 8 (GLP-1 numbering); epsilon-amino of Lys37 acylated with branched side chain: Pre-linker 4xAdo; Branched linker eps-Lys(Bis); two Post-linkers Trx-gGlu-2xAdo, each carrying a C20 diacid Protractor
notes: also called Chem. 35; N{Epsilon-37}-acylated [Aib8,Glu22,Arg26,Arg34,Lys37]-GLP-1-(7-37)-peptide
B9: GLP-1 derivative of Example 13 (peptide)
peptide: B2 peptide
modifications: Aib at position 8 (GLP-1 numbering); epsilon-amino of Lys37 acylated with branched side chain: Pre-linker 8xAdo; Branched linker eps-Lys(Bis); two Post-linkers Trx-gGlu, each carrying a C20 diacid Protractor
notes: also called Chem. 33; N{Epsilon-37}-acylated [Aib8,Glu22,Arg26,Arg34,Lys37]-GLP-1-(7-37)-peptide
B10: GLP-1 derivative of Example 12 (peptide)
peptide: B2 peptide
modifications: Aib at position 8 (GLP-1 numbering); epsilon-amino of Lys37 acylated with branched side chain: Pre-linker 6xAdo; Branched linker eps-Lys(Bis); two Post-linkers Trx-gGlu, each carrying a C20 diacid Protractor
notes: also called Chem. 32; N{Epsilon-37}-acylated [Aib8,Glu22,Arg26,Arg34,Lys37]-GLP-1-(7-37)-peptide
B11: GLP-1 derivative of Example 14 (peptide)
peptide: B2 peptide
modifications: not fully specified; Aib at position 8 (GLP-1 numbering); epsilon-amino of Lys37 acylated with branched side chain: Pre-linker 2xAdo; Branched linker eps-Lys(Bis); two Post-linkers Trx-gGlu-4xAdo, each carrying a C20 diacid Protractor
notes: also called Chem. 34; N{Epsilon-37}-acylated [Aib8,Glu22,Arg26,Arg34,Lys37]-GLP-1-(7-37)-peptide
B12: GLP-1 derivative of Example 4 (peptide)
peptide: B2 peptide
modifications: not fully specified; Aib at position 8 (GLP-1 numbering); epsilon-amino of Lys37 acylated with branched side chain: Pre-linker dPEG12; Branched linker eps-Lys(Bis); two Post-linkers Trx-gGlu, each carrying a C20 diacid Protractor
notes: also called Chem. 24; N{Epsilon-37}-acylated [Aib8,Glu22,Arg26,Arg34,Lys37]-GLP-1-(7-37)-peptide
B13: GLP-1 derivative of Example 22 (peptide)
peptide: B2 peptide
modifications: Aib at position 8 (GLP-1 numbering); epsilon-amino of Lys37 acylated with branched side chain: Pre-linker 3xAdo; Branched linker eps-Lys(Bis); two Post-linkers Trx-gGlu-3xAdo, each carrying a C20 diacid Protractor (the printed name gives (4R) for the gGlu of one arm and (4S) for the other)
notes: also called Chem. 42; N{Epsilon-37}-acylated [Aib8,Glu22,Arg26,Arg34,Lys37]-GLP-1-(7-37)-peptide
B14: GLP-1 derivative of Example 2 (peptide)
peptide: B2 peptide
modifications: not fully specified; Aib at position 8 (GLP-1 numbering); epsilon-amino of Lys37 acylated with branched side chain: Pre-linker 2xAdo; Branched linker eps-Lys(Bis); two Post-linkers Trx-gGlu-2xAdo, each carrying a C20 diacid Protractor
notes: also called Chem. 22; N{Epsilon-37}-acylated [Aib8,Glu22,Arg26,Arg34,Lys37]-GLP-1-(7-37)-peptide
B15: GLP-1 derivative of Example 17 (peptide)
peptide: H[Aib]EGTFTSDVSSYLEEQAAREFIAWLVRKRG
modifications: not fully specified (residue 29)
notes: also called Chem. 37; N{Epsilon-35}-acylated [Aib8,Glu22,Arg26,Arg34,Lys35]-GLP-1-(7-37)-peptide
B16: GLP-1 derivative of Example 18 (peptide)
peptide: H[Aib]EGTFTSDVSSYLEEQAAREFIAWLVRGKG
modifications: not fully specified (residue 30)
notes: also called Chem. 38; N{Epsilon-36}-acylated [Aib8,Glu22,Arg26,Arg34,Lys36]-GLP-1-(7-37)-peptide
B17: GLP-1 derivative of Example 6 (peptide)
peptide: [Desaminohistidyl][Aib]EGTFTSDVSSYLEEQAAREFIAWLVRGRGGK([AEEA-AEEA-AEEA-AEEA-Lys-code γGlu-Trx-C20 diacid),(γGlu-Trx-C20 diacid])
modifications: also: branched side chain on Lys39: two identical arms on eps-Lys(Bis)
notes: also called Chem. 26; [Imp7,Aib8,Glu22,Arg26,Arg34]-GLP-1-(7-37)-peptidyl-Gly-N{Epsilon}-acylated Lys
B18: GLP-1 derivative of Example 19 (peptide)
peptide: H[Aib]EGTFTSDVSSYLEEQAAREFIAWLVRGRGK
modifications: not fully specified (residue 32)
notes: also called Chem. 39; N{Alpha}([Aib8,Glu22,Arg26,Arg34]-GLP-1-(7-37)-peptidyl)-N{Epsilon}-acylated Lys
B19: GLP-1 derivative of Example 1 (peptide)
peptide: B2 peptide
modifications: not fully specified; Aib at position 8 (GLP-1 numbering); epsilon-amino of Lys37 acylated with branched side chain: Pre-linker Ado; Branched linker eps-Lys(Bis); two Post-linkers Trx-gGlu-2xAdo, each carrying a C20 diacid Protractor
notes: also called Chem. 21; N{Epsilon-37}-acylated [Aib8,Glu22,Arg26,Arg34,Lys37]-GLP-1-(7-37)-peptide
B20: GLP-1 derivative of Example 3 (peptide)
peptide: B2 peptide
modifications: not fully specified; Aib at position 8 (GLP-1 numbering); epsilon-amino of Lys37 acylated with branched side chain: Pre-linker dPEG6; Branched linker eps-Lys(Bis); two Post-linkers Trx-gGlu, each carrying a C20 diacid Protractor
notes: also called Chem. 23; N{Epsilon-37}-acylated [Aib8,Glu22,Arg26,Arg34,Lys37]-GLP-1-(7-37)-peptide

What follows are binders tested against T1, human GLP-1 receptor (human, UniProt P43220 24-463) (assay: SPA competition, displacement of 125I-GLP-1(7-36)NH2 from BHK membranes with human GLP-1 receptor; low HSA (max. 0.001%)).
T1 construct: whole, on cells
Description: (§1) For the receptor binding assay in the presence of low HSA (0.005%) 50 μl of the assay buffer was added to each well of an assay plate. […] For the receptor binding assay in the presence of high HSA (2%) 50 μl of the 8% albumin stock was added to each well of an assay plate. […] Cell membrane aliquots were thawed and diluted to their working concentration. Fifty μl were added to each well in the assay plate. […] WGA SPA beads were suspended in assay buffer at 20 mg/ml. The suspension was diluted to 10 mg/ml in assay buffer just prior to addition to the assay plate. Fifty μl were added to each well in the assay plate. […] A 25 μl aliquot was reserved for measuring total counts/well. […] The assay plate was incubated for 2 h at 30° C. […] The assay plate was centrifuged for 10 min. […] The assay plate was read in a Packard TopCount NXT instrument.
(§2) The data from the TopCount instrument were transferred to GraphPad Prism software. Individual replicates were analysed using non-linear regression.

Row | Binder | IC50
1 | B1 | 0.57 nM
2 | B2 | 0.91 nM
3 | B3 | 1.1 nM
4 | B4 | 1.5 nM
5 | B5 | 19 nM
6 | B6 | 1.5 nM
7 | B7 | 1.8 nM
8 | B8 | 0.87 nM
9 | B9 | 0.17 nM
10 | B10 | 0.63 nM
11 | B11 | 0.42 nM
12 | B12 | 0.78 nM
13 | B13 | 1.4 nM
14 | B14 | 0.56 nM
15 | B15 | 0.64 nM
16 | B16 | 0.68 nM
17 | B17 | 1 nM
18 | B18 | 0.69 nM

The binders below were run against T1, human GLP-1 receptor (assay: SPA competition, displacement of 125I-GLP-1(7-36)NH2 from BHK membranes with human GLP-1 receptor; high HSA (2.0%)).
Description: as §1, §2

Row | Binder | IC50
19 | B1 | 54 nM
20 | B19 | 140 nM
21 | B2 | 9.7 nM
22 | B20 | 180 nM
23 | B3 | 45 nM
24 | B4 | 19 nM
25 | B6 | 150 nM
26 | B7 | 150 nM
27 | B8 | 48 nM
28 | B9 | 32 nM
29 | B10 | 17 nM
30 | B11 | 27 nM
31 | B12 | 51 nM
32 | B13 | 63 nM
33 | B14 | 49 nM
34 | B15 | 77 nM
35 | B16 | 24 nM
36 | B17 | 140 nM
37 | B18 | 34 nM

What follows are binders tested against T1, human GLP-1 receptor (assay: cell-based or functional assay).

Row | Binder | EC50 (pM), in vitro potency, CRE luciferase reporter in BHK cells expressing the human GLP-1 receptor
38 | B1 | 79 pM
39 | B19 | 77 pM
40 | B2 | 53 pM
41 | B20 | 160 pM
42 | B3 | 72 pM
43 | B4 | 38 pM
44 | B5 | 150 pM
45 | B6 | 130 pM
46 | B7 | 120 pM
47 | B8 | 48 pM
48 | B9 | 47 pM
49 | B10 | 57 pM
50 | B11 | 19 pM
51 | B12 | 110 pM
52 | B13 | 12 pM
53 | B14 | 70 pM
54 | B15 | 20 pM
55 | B16 | 37 pM
56 | B17 | 150 pM
57 | B18 | 71 pM
